From patent US20220387578A1 come the findings set out here.

Assay [1] has as its target H1 HA A/Texas/36/1991 (H1N1), recombinant soluble trimer (influenza A virus).
Assay [2] deals with H1 HA A/Solomon Islands/03/2006 (H1N1), recombinant soluble trimer (influenza A virus).
Assay [3] has as its target H3 HA A/Texas/50/2012, recombinant soluble trimer (influenza A virus).

Where only a bound is given, the exact number is not on record here.

By EC50 is commonly meant the concentration giving half of the maximal effect. On to “rFluA-20 light chain mutant Q55A (antibody)”, for which the EC50 in assay [1] amounted to 0.23 µg/mL. The EC50 relative to wild type rFluA-20 in assay [2] was over 100 fold.

Turning to “rFluA-20 light chain mutant N53A (antibody)”, the values for the EC50 in assay [1], in assay [2] and in assay [3] were 0.04 µg/mL, 0.05 µg/mL and 0.09 µg/mL, respectively.

Regarding “rFluA-20 heavy chain mutant C101A (antibody)”, the EC50 is 0.15 µg/mL in assay [1], 0.2 µg/mL in assay [2] and 0.39 µg/mL in assay [3].
